This note sets out measurements from paper PMC5300155, “Biochemical and biophysical investigations of the interaction between human glucokinase and pro-apoptotic BAD” (PLoS ONE, 2017).

Entries after “also recorded” stand apart in the source; their conditions may differ.

Series [1] concerns the target T1, human pancreatic GCK (Homo sapiens, UniProt P35557).
T1 construct: hexahistidine (N); made in house; host or cells: glucokinase auxotroph BM5340(DE3)
T1 sequence (P35557 1-465): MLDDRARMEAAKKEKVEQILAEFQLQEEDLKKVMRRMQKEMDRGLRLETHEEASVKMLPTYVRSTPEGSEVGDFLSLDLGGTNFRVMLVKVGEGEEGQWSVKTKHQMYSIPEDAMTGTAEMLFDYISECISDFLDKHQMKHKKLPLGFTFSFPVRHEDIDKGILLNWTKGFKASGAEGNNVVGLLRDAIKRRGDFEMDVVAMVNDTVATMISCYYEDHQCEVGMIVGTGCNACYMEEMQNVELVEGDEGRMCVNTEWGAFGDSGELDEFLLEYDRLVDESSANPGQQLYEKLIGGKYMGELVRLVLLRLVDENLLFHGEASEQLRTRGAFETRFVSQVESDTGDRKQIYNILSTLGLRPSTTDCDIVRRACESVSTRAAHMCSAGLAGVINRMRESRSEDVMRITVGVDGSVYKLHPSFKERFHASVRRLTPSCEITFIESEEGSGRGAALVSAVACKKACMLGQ
The experiment in a line: Analytical ultracentrifugation sedimentation velocity of equimolar mixtures with GCK. The series is classed as binding. Particulars: equimolar mixture, BAD buffer pH 8.5, 20°C, 50,000 x g. How it is done:
Sedimentation velocity experiments were conducted with an Optima XLI Ultracentrifuge (Beckman Coulter) using a four-hole rotor with three 420 μL samples in standard double-sector Epon centerpieces equipped with sapphire windows. Absorbance and interference data were collected simultaneously. Size-exclusion purified proteins were concentrated to OD280 nm = 0.3–1.0 prior to centrifugation. For complex formation, proteins were mixed in a 1:1 molar ratio in BAD buffer (0.1 M Tris, 0.1 M KCl, 0.5 M arginine, 2.5 mM CHAPS, 5 mM TCEP, 10% glycerol, pH 8.5) and incubated on ice 30 min prior to the start of the experiment. Experiments were carried out at 20°C and 50,000 x g. Data were analyzed with Ultrascan III software using a minimum of 70 scans per sample for analysis. Van Holde-Weischet analysis was performed to obtain S20,W values.

The test system of another series is glucokinase (GCK). The experiment in a line: Chemical cross-linking (dimethyl pimelimidate) with GCK. The series is classed as binding, human. Particulars: DMP, 50-fold molar excess, room temperature 1 h; 1:1 mixture, 40 μM protein; SDS-PAGE. How it is done:
Protein samples were cross-linked with dimethyl pimelimidate (DMP). Aqueous stocks of cross-linkers were added to protein samples in a 50-fold molar excess and incubated at room temperature 1 h. Mixtures contained 20 μM protein (GCK or BAD) or 40 μM protein (1:1 mixture of glucokinase and BAD) in BAD buffer (0.1 M Tris, 0.1 M KCl, 0.5 M arginine, 2.5 mM CHAPS, 5 mM TCEP, 10% glycerol, pH 8.5). Reactions were immediately separated on SDS-PAGE and visualized with Coomassie blue staining.

The target in series [2] is T1, human pancreatic GCK. The experiment in a line: Size-exclusion chromatography of mixtures with GCK. As to conditions: mixtures across a range of protein concentrations; BAD buffer pH 8.5, 4°C. Format: binding. How it is done: (§1) Size-exclusion chromatography was performed on a HiPrep 16/60 Sephacryl S-200 HR column (GE Healthcare) connected to a Bio-Rad DuoFlow FPLC. The column was calibrated with thyroglobulin (669 kDa), γ-globulin (158 kDa), ovalbumin (43 kDa), myoglobin (17 kDa), and vitamin B12 (1.35 kDa). All proteins were analyzed in BAD buffer (0.1 M Tris, 0.1 M KCl, 0.5 M arginine, 2.5 mM CHAPS, 5 mM TCEP, 10% glycerol, pH 8.5) at a flow rate of 0.02 mL/min at 4°C. Protein samples were concentrated to 800 μL and filtered through 0.2 μm filters before injection onto the size-exclusion column. For complex formation, equimolar mixtures of proteins were added to BAD buffer in a final volume of 800 μL and incubated on ice 30 min prior to injection onto the column.

A short description of series [3]: Aggregation in refolding buffers (spin-filter assay). Format: physicochemical. As to conditions: CHAPS (2.5 mM) and arginine (0.5 M). How it is done: To determine buffer conditions for BAD-GST refolding, we made use of a spin-filter assay developed by Bondos and Bicknell. Purified protein was collected after size-exclusion chromatography and diluted into test buffers containing various stabilizers and detergents, including Triton-X (0.2%), CHAPS (1.25–6.0 mM), arginine (0.1–0.6 M), glycerol (20%) or urea (1.5 M). After overnight incubation at 4°C, diluted protein was filtered across a 100,000 MWCO microconcentrator (Amicon Ultra 0.5, EMD Millipore) at 14,000 x g. Concentrate was considered aggregated protein, while flow through was considered non-aggregated protein. Concentrate and flow through were resuspended to equal volumes and analyzed via SDS-PAGE; protein was visualized with SYPRO Ruby stain on a fluorescence imaging scanner. ImageJ software was used to measure ratios of non-aggregated to aggregated protein [26].

Series [4] in a line: Circular dichroism spectroscopy (secondary structure). Format: physicochemical. Particulars: far UV CD, 25°C, pH 7.8, 3–15 μM, CDPro.
For the next series, the target named is T2, Bcl-xL (Homo sapiens, UniProt Q07817, DEL45-84).
T2 construct: made in house
T2 sequence (Q07817 with tags, fused parts or gaps DEL45-84): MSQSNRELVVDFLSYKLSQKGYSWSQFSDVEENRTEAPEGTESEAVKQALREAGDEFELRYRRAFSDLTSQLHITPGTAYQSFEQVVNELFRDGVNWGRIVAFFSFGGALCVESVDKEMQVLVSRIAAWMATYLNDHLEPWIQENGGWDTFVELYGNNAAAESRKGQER
The experiment in a line: Size-exclusion chromatography of 1:1 mixture with Bcl-xL. The series is classed as binding. Particulars: 1:1 mixture of purified Bcl-xL and BAD-GST; BAD buffer pH 8.5, 4°C. How it is done:
as §1

B1: BAD-GST: recombinant human BAD with N-terminal hexahistidine tag and C-terminal GST fusion, TEV consensus sequence between (protein)
chain: MFQIPEFEPSEQEDSSSAERGLGPSPAGDGPSGSGKHHRQAPGLLWDASHQQEQPTSSSHHGGAGAVEIRSRHSSYPAGTEDDEGMGEEPSPFRGRSRSAPPNLWAAQRYGRELRRMSDEFVDSFKKGLPRPKSAGTATQMRQSSSWTRVFQSWWDRNLGRGSSAPSQ
modifications: left off: His6, N-terminal, state not stated | GST, C-terminal, kept
Take B1: in the series with human pancreatic GCK [1], the “Complex with GCK by analytical ultracentrifugation” value was “does not reveal a higher molecular weight component indicative of complex formation”. In the series with glucokinase (GCK), the “Complex with GCK by chemical cross-linking” value is given as “does not support the formation of a BAD-GST:GCK complex”. Moreover, in the series with human pancreatic GCK [2], the “Complex with GCK by size-exclusion chromatography” value is reported as “No evidence of a higher molecular weight complex is observed; also recorded: provides no evidence of complex formation”. In series [3], the “Aggregation, effect of refolding additives” value is recorded as “essential to prevent aggregation of recombinant BAD”. Further, in series [4], the Random coil content stood at 30%, the α-helical content is 10% and the β-sheet content is on record as 37%. For the same molecule, in the series with Bcl-xL, the “Complex formation with Bcl-xL by size-exclusion chromatography” value was “three peaks corresponding to monomeric Bcl-xL, the BAD-GST dimer, and the BAD-GST:Bcl-xL complex; also recorded: confirms formation of a higher molecular weight complex between BAD-GST and Bcl-xL”.
